# Laboratory results published in the supplement of paper PMC7125110.
# ± gives the standard error. This sample holds only a part of the variants without activity.
# B1: glmS ribozyme (parent)
# chain: AUAAAAGCGCCAGAACUACAGAAAUGUAGUUGACGAGGAGGAGGUUUAUCGAAUUUUCGGCGGAUGCCUCCAAA
# Variants of: B1
# Assay: self-cleavage kobs at 2500 uM GlcN6P; higher = faster cleavage; RNA array
# Conditions: with glucosamine-6-phosphate
# Outline: (§1)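 E. coli RNA polymerase transcribed barcoded ribozyme variants in situ on sequenced MiSeq chips, which were tracked via a hybridised Cy3 probe at 37 °C. Tiles were imaged over ~14 h after glucosamine-6-phosphate (40 μM to 10 mM) in HEPES/KCl/Mg(OAc)2 buffer was flowed in. Normalised per-tile medians were fit to one- or two-exponential decays for kobs, and kcat and KM came from weighted Michaelis–Menten fits.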
row,Variant,self-cleavage kobs at 2500 uM GlcN6P [s⁻¹]
1,A6U C8G G44C A53G,< 1e-05
2,U2C A53C,0.00726 ± 0.0019
3,C50G U57G G66U C70G,0.000139 ± 4.9e-05
4,A6U C50A G51U,< 1e-05
5,A6C G9U C70A,< 1e-05
6,G7A A39C G59C C70U,< 1e-05
7,U57C C61U G63A,< 1e-05
8,U55G C67A C68G,7.14e-05 ± 1.6e-05
9,A6G G40C A42U,< 1e-05
10,A6C A39C G60U,< 1e-05
11,A6G A52G G62C,< 1e-05
12,U47A U56A C70U,0.00157 ± 0.0006
13,G7C G13U G43C G66U,< 1e-05
14,G7U G43A U47G U56G,< 1e-05
15,G44A U45G U49A C50G,< 1e-05
16,G7C G29A G62U,< 1e-05
17,U47A A48C,0.000222 ± 3.6e-05
18,G7U U55A U56A,< 1e-05
19,A6U C10A C70A,0.000332 ± 0.00011
20,U46A U47C C70A,0.000206 ± 3.7e-05
21,G7U U31C G32C G35C A36C C71U,< 1e-05
22,U45A C58A C71U,0.000293 ± 8.3e-05
23,A6U A15G A53G,0.000262 ± 4.9e-05
24,G7A A15G G29A A36G A52G,< 1e-05

row,Variant,self-cleavage kobs at 2500 uM GlcN6P [s⁻¹]
1,C8A A15G G32U G44U C67A,< 1e-05
2,A6U G9A A42C,< 1e-05
3,A6C A52U G60A,< 1e-05
4,C58G C68A U69G,5.37e-05 ± 2.4e-05
5,G7U U46G A48U,< 1e-05
6,C50U U56G C70G,0.000251 ± 5.8e-05
7,A6G U31A U49A,< 1e-05
8,C8A C16U A33U C68U,< 1e-05
9,A6G A12C U55C C67U,< 1e-05
10,U47G U57G C61G C67U,0.000254 ± 6.6e-05
11,A6U U47A A53G G59U,< 1e-05
12,A6U G7A G60U G62U U65G,< 1e-05
13,U47C U55A,0.00273 ± 0.00077
14,A6G C11A U49G,< 1e-05
15,U49C U65C U69A,< 1e-05
16,G7A C16U U47C C58G,< 1e-05
17,A6G G9C C70G,< 1e-05
18,G7A G51U U54G G63A,< 1e-05
19,A6C A48C G51U,< 1e-05
20,C61G C70G C71G,8.65e-05 ± 2.4e-05
21,A6G C11G U45A C50A,< 1e-05
22,A6G A15U G59C,< 1e-05
23,G44U A48G C50G,< 1e-05
24,G7U G41C C50U,< 1e-05

row,Variant,self-cleavage kobs at 2500 uM GlcN6P [s⁻¹]
1,A6G G32U U45G,< 1e-05
2,G7U C8U G41C C70G,< 1e-05
3,U46A U54G C70A,0.000289 ± 7.5e-05
4,A6C A42U G59U,< 1e-05
5,A6U A15G C16U,5.09e-05 ± 1.6e-05
6,G7U G9C U47A U56G G59U C70A,< 1e-05
7,G44A A48U U56G,< 1e-05
8,U56C G66C,8.66e-05 ± 2.4e-05
9,G7C C11A G60C,< 1e-05
10,G7A G9U A33C U47G,< 1e-05
11,G7U C8G U49A,< 1e-05
12,A6U A52G U69C,5.25e-05 ± 2.2e-05
13,A6C A14G G35A U57A G66C C68U,< 1e-05
14,U55G G66C C70U,0.000343 ± 8.7e-05
15,C50G G60C C70A,5.41e-05 ± 2.7e-05
16,G7U U31C G43A,< 1e-05
17,U46G G51U C71U,< 1e-05
18,A6C U31A A48C,< 1e-05
19,G7U C11U G51C,< 1e-05
20,G7A C8G G9C A15C U47G C71A,< 1e-05
21,U45C A52G C70U,6.92e-05 ± 1.3e-05
22,A6C C34G C50G,4.66e-05 ± 2.1e-05
23,A6U C8U A52U C67U C71U,< 1e-05
24,A6G A36U A48U C50U,< 1e-05

row,Variant,self-cleavage kobs at 2500 uM GlcN6P [s⁻¹]
1,A52G G66A,0.000203 ± 4.6e-05
2,C8A C58A G59C,< 1e-05
3,G7U A33U U69G,0.000542 ± 0.00021
4,A6G C11G A33U G59C,< 1e-05
5,A52U A53G G59C,< 1e-05
6,G7U G32C G40U U45G,< 1e-05
7,G7U C16U A33U,< 1e-05
8,A6C A14U C50G C61G C68G C70U,0.000499 ± 0.00017
9,C8A C10U G35A G38A C68U,4.94e-05 ± 1.7e-05
10,G7C G9A A14U C50A,< 1e-05
11,A6U A36G U46C A52G C67U,< 1e-05
12,U46C G60U,< 1e-05
13,A6C C8G G66A C70U,< 1e-05
14,A6G C16U G29C,6.69e-05 ± 2e-05
15,A6U C67G C71A,< 1e-05
16,A6C G41U C58U C68U,< 1e-05
17,U56G U57G U65C,< 1e-05
18,A6U C50G U55G A64G C67U,0.000132 ± 3.6e-05
19,G7U A42C A64U G66U,< 1e-05
20,C8A A12U G44U,< 1e-05
21,A52G C61G U69A,5.25e-05 ± 2.2e-05
22,A6G A42U A48C U54C U69A,< 1e-05
23,G7A C10U G35U G43U,< 1e-05
24,G7C A36G G37C U56A G66A,< 1e-05

row,Variant,self-cleavage kobs at 2500 uM GlcN6P [s⁻¹]
1,A6C A12G A15G,< 1e-05
2,G7C G35C A48C C58U,< 1e-05
3,G7A G13A U30C C34U C70U,< 1e-05
4,U55G U65C C70U,0.000458 ± 0.00012
5,U45C U47A,0.000441 ± 0.00018
6,A6U C8U C16U U30C G44U U55A C67G,< 1e-05
7,A6G A36C U54G G62U,< 1e-05
8,G7C C11U C34G U49G,< 1e-05
9,A6G G40A G41C,< 1e-05
10,G7U G35U C50U,< 1e-05
11,G7A C11U U45C,< 1e-05
12,A6C G40C C61U,< 1e-05
13,G7U C16G A48U,< 1e-05
14,A6C A36U G37C A39U,< 1e-05
15,G7C A14U G32U A36G G43C,< 1e-05
16,U45G U46C C61A G66U,< 1e-05
17,C8A A33C U45C G59A,< 1e-05
18,G7U U31G C61A C70A,< 1e-05
19,G7A A39C U54G U57A C58U G66U,< 1e-05
20,U47A U49G,7.57e-05 ± 1.8e-05
21,G7C U30G G32U A64G,< 1e-05

# Variants of: B1
# Assay: self-cleavage kobs at 640 uM GlcN6P; higher = faster cleavage; RNA array
# Conditions: with glucosamine-6-phosphate
# Outline: as §1
row,Variant,self-cleavage kobs at 640 uM GlcN6P [s⁻¹]
1,C50G U57G G66U C70G,0.000982 ± 0.0003
2,U57C C61U G63A,< 1e-05
3,U55G C67A C68G,8.64e-05 ± 2.7e-05
4,U47A U56A C70U,0.00117 ± 0.00047
5,A48U A53C C68G C71G,9.77e-05 ± 3.4e-05
6,G44A U45G U49A C50G,< 1e-05
7,U47A A48C,0.000145 ± 2.2e-05
8,U45C A53U C67G,0.00389 ± 0.0016
9,U46A U47C C70A,9.01e-05 ± 2.2e-05
10,U45A C58A C71U,0.000102 ± 2.9e-05
11,A52C U57G U69G,8.06e-05 ± 2.8e-05
12,C50G A52U C70U,0.000121 ± 5e-05
13,C58G C68A U69G,0.000107 ± 3.5e-05
14,G43U U54G C58A C67U,< 1e-05
15,C50U U56G C70G,0.000278 ± 8e-05
16,G60U G62A C67U,< 1e-05
17,U47G U57G C61G C67U,0.000132 ± 5.3e-05
18,U47C U55A,0.00113 ± 0.00019
19,U49C U65C U69A,< 1e-05
20,C58G G59U C68G,4.54e-05 ± 1.7e-05
21,U46A U49A U56C A64G,< 1e-05

row,Variant,self-cleavage kobs at 640 uM GlcN6P [s⁻¹]
1,A48G C50U A52U C70G,4.03e-05 ± 2e-05
2,C61G C70G C71G,0.000223 ± 8.8e-05
3,G44U A48G C50G,< 1e-05
4,U46A U54G C70A,5.86e-05 ± 2.1e-05
5,U46A C58G,< 1e-05
6,G44A A48U U56G,< 1e-05
7,U45G U47A A52G C68G,< 1e-05
8,U56C G66C,6.26e-05 ± 2.2e-05
9,C50G U65G U69A,0.000101 ± 2.1e-05
10,G59A G60U C67U,< 1e-05
11,U55G G66C C70U,0.000456 ± 0.0001
12,G62A G66C C67A,< 1e-05
13,G60U G66C C70U,< 1e-05
14,A53U C58U C67U,9.41e-05 ± 4.6e-05
15,C50G G60C C70A,0.000161 ± 5.8e-05
16,C50G A52U,< 1e-05
17,U46G G51U C71U,< 1e-05
18,U45C A52G C70U,4.7e-05 ± 1.6e-05
19,U45C A53C,9.37e-05 ± 1.6e-05
20,U47A C58U U65C,< 1e-05
21,A52G G66A,0.000162 ± 3e-05

row,Variant,self-cleavage kobs at 640 uM GlcN6P [s⁻¹]
1,U55G G62A G63U,< 1e-05
2,C61G C68U U69A,< 1e-05
3,A52U A53G G59C,< 1e-05
4,A52C C58G,< 1e-05
5,U49G C50G G63C U69C,0.00018 ± 4.2e-05
6,U46C G60U,< 1e-05
7,U57G C67G,0.000478 ± 0.00018
8,U56G U57G U65C,< 1e-05
9,A52G C61G U69A,0.000109 ± 4.4e-05
10,A48G A52C U57G,< 1e-05
11,A48G C50G C58G,0.000184 ± 8.1e-05
12,U49A G66A,< 1e-05
13,U55G U65C C70U,0.00017 ± 3.7e-05
14,U45C U47A,0.000335 ± 8.3e-05
15,C50U C67A,6.32e-05 ± 2.1e-05
16,G51U G63A C68G,9.2e-05 ± 3e-05
17,U49C C61A,< 1e-05
18,U45G U46C C61A G66U,< 1e-05
19,U47A U49G,3.82e-05 ± 1.4e-05
20,C58U A64C C71A,< 1e-05

# Variants of: B1
# Assay: self-cleavage kobs at 10000 uM GlcN6P; higher = faster cleavage; RNA array
# Conditions: with glucosamine-6-phosphate
# Outline: as §1
row,Variant,self-cleavage kobs at 10000 uM GlcN6P [s⁻¹]
1,A6C G9U C70A,< 1e-05
2,U57C C61U G63A,< 1e-05
3,U47A A48C,0.000561 ± 0.0001
4,A6U A15G A53G,0.000262 ± 5.8e-05
5,C8A A15G G32U G44U C67A,< 1e-05
6,U47C U55A,0.00496 ± 0.0011
7,G44U A48G C50G,< 1e-05
8,C50G A52U,< 1e-05
9,A6C U31A A48C,< 1e-05
10,U45C A53C,0.000403 ± 0.00014
11,A52G G66A,0.000481 ± 0.00017
12,U55G G62A G63U,< 1e-05
13,A52C C58G,< 1e-05
14,A6G C16U G29C,6.83e-05 ± 1.6e-05
15,U57G C67G,2.33e-05 ± 1e-05
